From US20200172904A1 (MIT, published 2020)

Molecular target: FMR1 (mouse, UniProt P35922 1-614)
Assay: co-IP of Mena from E15.5 mouse brain lysates, western blot
Method: Collected lysates were cleared by centrifugation for 20 minutes 14k rpm at 4° C., and incubated overnight at 4° C. with antibodies on magnetic protein G beads (incubated in PBS for 4 hours at 4° C. After IP, beads were washed three times with lysis buffer containing 0.4% NP40, and boiled in 2× sodium dodecyl sulfate (SDS) sample buffer for loading onto an acrylamide gel either for western blotting or for Mass Spectrometry.
Mass spectrometry was performed after immunoprecipitation (IP) of Mena from lysates of E15.5 mouse brains from Mena-wild type and Mena-deficient animals. […] To verify the specificity of these interactions, co-IP experiments from E15.5 mouse brains was performed using Mena-deficient brain lysates or isotype-specific antibodies as negative controls.

B1: Mouse Mena/ENAH (Protein enabled homolog) (other)
chain: MSEQSICQARAAVMVYDDANKKWVPAGGSTGFSRVHIYHHTGNNTFRVVGRKIQDHQVVINCAIPKGLKYNQATQTFHQWRDARQVYGLNFGSKEDANVFASAMMHALEVLNSQEAAQSKVTATQDSTNLRCIFCGPTLPRQNSQLPAQVQNGPSQEELEIQRRQLQEQQRQKELERERMERERLERERLERERLERERLEQEQLERQRQEREHVERLERERLERLERERQERERERLEQLEREQVEWERERRMSNAAPSSDSSLSSAPLPEYSSCQPPSAPPPSYAKVISAPVSDATPDYAVVTALPPTSTPPTPPLRHAATRFATSLGSAFHPVLPHYATVPRPLNKNSRPSSPVNTPSSQPPAAKSCAWPTSNFSPLPPSPPIMISSPPGKATGPRPVLPVCVSSPVPQMPPSPTAPNGSLDSVTYPVSPPPTSGPAAPPPPPPPPPPPPPPPLPPPPLPPLASLSHCGSQASPPPGTPLASTPSSKPSVLPSPSAGAPASAETPLNPELGDSSASEPGLQAASQPAESPTPQGLVLGPPAPPPPPPLPSGPAYASALPPPPGPPPPPPLPSTGPPPPPPPPPPLPNQAPPPPPPPPAPPLPASGIFSGSTSEDNRPLTGLAAAIAGAKLRKVSRVEDGSFPGGGNTGSVSLASSKADAGRGNGPLPLGGSGLMEEMSALLARRRRIAEKGSTIETEQKEDRNEDAEPITAKAPSTSTPEPTRKPWERTNTMNGSKSPVISRPKSTPSSQPSANGVQTEGLDYDRLKQDILDEMRKELAKLKEELIDAIRQELSKSNTA
notes: Endogenous Mena from E15.5 mouse brain lysates, cultured mouse cortical neurons, N2A cells or MEFs
binding result: no binding
